# Reference: patent publication US20080009025A1, “PROTEIN KINASE REGULATION” (priority 1999, published 2008)
# Where a SMILES comes first, the peptide text is derived from it.
# How the values were obtained:
# [1] = target: T1, PDK1 (Homo sapiens, UniProt O15530); test: PDK1 activity towards synthetic peptide substrates T308tide or PDKtide; assay type: biochemical
# T1 construct: Full length PDK1 (residues 1-556); made in house; host or cells: 293 cells
# T1 sequence (O15530 52-556): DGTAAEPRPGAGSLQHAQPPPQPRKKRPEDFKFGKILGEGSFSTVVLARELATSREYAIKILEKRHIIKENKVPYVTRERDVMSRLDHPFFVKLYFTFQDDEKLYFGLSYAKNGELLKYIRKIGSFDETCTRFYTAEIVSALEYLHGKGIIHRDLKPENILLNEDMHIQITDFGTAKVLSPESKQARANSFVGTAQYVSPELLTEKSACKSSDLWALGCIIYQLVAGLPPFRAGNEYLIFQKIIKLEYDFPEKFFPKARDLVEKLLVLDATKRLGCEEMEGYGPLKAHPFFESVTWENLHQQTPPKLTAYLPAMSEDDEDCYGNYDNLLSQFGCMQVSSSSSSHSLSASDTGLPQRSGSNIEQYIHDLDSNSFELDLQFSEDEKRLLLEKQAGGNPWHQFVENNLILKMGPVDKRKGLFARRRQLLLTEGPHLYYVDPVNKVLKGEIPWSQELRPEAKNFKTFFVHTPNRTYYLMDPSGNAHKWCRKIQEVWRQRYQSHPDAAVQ
# Procedure: FIG. 12. PDK1 is activated and stabilised through its interaction with PIFtide. (A) GST-PDK1 activity was measured in the presence of increasing concentrations of wild type (wt) PIFtide (closed circles) or a mutant D978A PIFtide (open circles) using the synthetic peptide substrate termed T308tide, as described in Material and Methods. The data was fitted to a hyperbola using the Kaleidagraph™ software. The connection needed to obtain 50% activation of PDK1 was […] for wt-PIFtide and 1.1 μM for D978A-PIFtide. The assay shown was performed in triplicate and there was less than 5% difference between each assay. Similar results were obtained in 2 further experiments (B)—The wild type GST-PDK1 (circles) or the L155D mutant of GST-PDK1 (squares) was incubated in the presence (closed symbols) or absence (open symbols) of […] PIFtife and then for 2 min at the indicated temperatures, rapidly brought to 0° C. (see Materials and Methods), and 2 min later assayed at 30° C. for 10 min using T308tide as substrate. The activity of PDK1 obtained by incubation at 30° C. was taken as 100%. The assay shown was performed in duplicate with similar results obtained in two separate experiments.
# FIG. 14. […] (A) His-PDK1 was assayed for activity using as substrate the indicated concentration of either PDKtide (open triangles) or T308tide (open circles). (B) HIS-PDK1 was assayed for activity in the presence if PDKtide (25 μM closed triangles) or T308tide (100 μM closed circles) in the presence of the indicated concentrations of PIFtide. The assay was performed in triplicates with less than 5% difference between the triplicate samples. Similar results were obtained in 3 separate experiments.
# PDK1's ability to phosphorylate Thr308 of PKBα was measured using a mutant of GST-PKBα in which Ser473 was mutated to Asp (GST-473D PKBα) in the presence of phospholipid vesicles containing sn-1-stearoyl-2-arachidonoyl-D-PtdIns (3, 4, 5)P3 [13]. The ability of wild type and mutant PDK1 to phosphorylate the synthetic peptides T308tide or PDKtide was carried out in 20 μl assays containing 50 mM Tris/HCl pH 7.5, 0.1% 2-mercaptoethanol 10 mM MgCl2, 100 μM [γ^32P]ATP (˜500 cpm/pmol) 0.5 μM microcystin-LR.PDK1 and the peptide concentrations indicated under Results. After incubation for 10 min at 30° C. the reaction was stopped by addition of 20 μl of 150 mM phosphoric acid. 35 μl of the resultant mixture was spotted into P81 phosphocellulose paper (2×2 cm) and the papers washed and analysed as described previously for assays of MAP kinase. […] Control assays were carried out in parallel in which either PDK1, or peptide substrate were omitted; these values were always less than 5% of the activity measured in the presence of these reagents. […]
# [2] = tested on: PDK1; test: Yeast two-hybrid interaction with PDK1; assay type: binding, human; conditions: PDK1 L155 mutants
# [3] = target: T2, PDK1 (Homo sapiens, UniProt O15530); test: Yeast two-hybrid interaction with PDK1; assay type: binding; design: expressed in transfected cells; host or cells: Saccharomyces cerevisiae strain Y190; conditions: wild type PDK1
# T2 sequence (O15530 1-556): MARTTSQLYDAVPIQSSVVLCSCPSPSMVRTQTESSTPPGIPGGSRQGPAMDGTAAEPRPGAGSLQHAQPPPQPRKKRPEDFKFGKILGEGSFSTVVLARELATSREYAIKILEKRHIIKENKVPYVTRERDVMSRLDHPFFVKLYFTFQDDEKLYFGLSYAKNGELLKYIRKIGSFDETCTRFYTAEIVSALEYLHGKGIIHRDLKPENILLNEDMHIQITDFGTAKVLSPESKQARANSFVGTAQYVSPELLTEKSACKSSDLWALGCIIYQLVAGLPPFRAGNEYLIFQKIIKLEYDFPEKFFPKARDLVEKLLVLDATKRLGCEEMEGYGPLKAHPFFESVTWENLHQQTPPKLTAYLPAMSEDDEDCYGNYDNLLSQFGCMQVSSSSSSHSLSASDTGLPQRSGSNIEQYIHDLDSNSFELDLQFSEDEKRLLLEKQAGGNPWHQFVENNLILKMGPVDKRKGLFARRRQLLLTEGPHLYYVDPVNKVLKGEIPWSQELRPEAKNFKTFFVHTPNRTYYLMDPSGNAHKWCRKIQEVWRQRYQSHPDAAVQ
# [4] = target: T2, PDK1; test: Glutathione-Sepharose pull-down of PDK1 with S6K1 or SGK1 from 293 cells; assay type: binding; design: Full length PDK1 (residues 1-556); made in house; host or cells: 293 cells; conditions: Flag-tagged S6K1 forms; wild type GST-PDK1
# Procedure: FIG. 21. Interaction of S6K1 and SGK1 with PDK1. 293 cells were transiently transfected with DNA constructs expressing GST, GST-PDK1 wt or PDK1 L155E together with constructs expressing either wild type or the indicated mutants or truncations of HA tagged S6K1 (A) or wild type GST-ΔN-SGK1 or 422D mutant. 36 h post transfection the cells were lysed and GST fusion protein was purified by affinity chromatography on glutathione-Sepharose beads. Aliquots were electrophoresed on a 10% SDS-polyacrylamide gel, stained with Coomassie Blue, or immunoblotted using an anti-FLAG antibody to detect FLAG-S6K1 and anti-Myc antibody to detect Myc-PDK1. To establish that the wild type and mutant proteins were expressed at similar levels, […] of total lysate was electrophoresed on a 10% SDS-polyacrylamide gel and immunoblotted using the indicated antibodies. Duplicates of each condition are shown. Similar results were obtained in two different experiments.
# Binding of PDK1 to SGK1 and S6K1. For the data presented in FIG. 22, 293 cells were cotransfected with 10 μg of the wild type or mutant PDK1 plasmid and 10 μg of either the wild type or mutant S6K1 or SGK1. […] The gels were either stained with Coomassie blue, or analysed by immunoblotting with either anti-Flag or anti-Myc antibodies (described below).
compound,measurement,setting,value
"CC(C)C[C@H](NC(=O)[C@H](Cc1ccc(O)cc1)NC(=O)[C@H](CCC(=O)O)NC(=O)[C@@H]1CCCN1C(=O)[C@@H](NC(=O)CNC(=O)[C@H](CS)NC(=O)[C@H](Cc1ccccc1)NC(=O)[C@@H](NC(=O)[C@@H](N)CCCCN)[C@@H](C)O)[C@@H](C)O)C(=O)N[C@@H](C)C(=O)N1CCC[C@H]1C(=O)N[C@@H](CCC(=O)O)C(=O)N[C@H](C(=O)N[C@@H](CCCNC(=N)N)C(=O)N[C@@H](CCCNC(=N)N)C(=O)O)C(C)C [T308tide, KTFCGTPEYLAPEVRR, reference compound] (H-KTFCGTPEYLAPEVRR-OH)",Km,[1]; read-out: Km of PDK1 for peptide substrate,> 10 mM
"KTFCGTPEYLAPEVRREPRILSEEEQEMFRDFDYLADWC [PDKtide, 39 amino acid polypeptide composed of T308tide fused to PIFtide]",rate of phosphorylation by PDK1 relative to T308tide,[1]; assayed at 100 μM,over 100 fold
PKACT: C-terminal fragment of PKA composed of residues 129-350,"two-hybrid interaction with L155S, L155D or L155E mutants of PDK1",[2],greatly reduced
same,two-hybrid interaction with full length PDK1,[3],positive interaction
full length S6K1: Flag epitope tagged full length S6K1,interaction with GST-PDK1,[4],failed to interact
full length S6K1[T412E]: Flag epitope tagged full length S6K1 with Thr412 to Glu,interaction with GST-PDK1,[4],failed to interact
